Test results from patent US20140234868A1, “USE FOR GLYCOLIPOPROTEIN GINTONIN, ISOLATED AND IDENTIFIED FROM GINSENG, AS A NATURAL MEDICAL-PLANT DERIVED LIGAND” (KONKUK UNIVERSITY INDUSTRIAL COOPERATION CORP., priority 2011, published 2014).

Assays:
[1] = test system: mice; assay: Water maze test, scopolamine-caused spatial cognition impairment; type: in vivo, mouse
Experimental: The Moths water maze set up contained a round water pool (45 cm deep with a diameter of 90 cm) filled with milk-mixed water (22±1° C.) to a depth of 30 cm. It was placed in a dark, sound-shielded room in which various visual cues were established. A white platform (6 cm in diameter, 29 cm in height) was inside the pool, with the top thereof 1 cm below the water surface in the center of one quadrant of the maze
On day 1, the mice were trained to swim for 60 sec. Subsequently, the training was conducted four times a day for four consecutive days, with the platform inside the pool. When the mouse reached the platform, it was allowed to sit on the platform only for 10 sec. If the failed in reaching the platform within 60 sec, it was guided to reach the platform and stay for 10 sec thereon. Afterwards, the mouse was returned back to the home cage and allowed to dry its body under an IR lamp. The time interval between trials was 30 sec.
The time to reach the hidden platform was recorded in each trial using a video camera-based Ethovision System (Nodulus, Wageningen, the Netherlands).
For each training trial, the mouse was placed into the pool at one quadrant at positions which were different day by day. One day after the final training trial, the mouse was evaluated. In this regard, after the platform was removed, the mouse was allowed to swim for 60 sec in search for the platform, and the time to swim in the quadrant where the platform was located was recorded. Gintonin (25, 50, or 100 mg/kg, p.o.) in physiological saline was administered 1 hr before test, every day. Tacrine (10 mg/kg, p.o.) was used as a positive control. Memory impairment was induced by scopolamine (0.9 mg/kg i.p.) 30 min after gintonin administration. For a negative control, only physiological saline was administered.
An examination was made of simple spatial reasoning. To this end, while the mice were allowed to swim in the absence of the rescue platform in the pool, the time period during which the mice swam in the quadrant where the rescue platform had been located was recorded.

[2] = test system: NMDA receptor; assay: NMDA receptor activity in oocytes expressing active or inactive RPTP alpha; type: cell-based; conditions: oocytes expressing active or inactive RPTP α
Experimental: Two-electrode voltage-clamp recordings were obtained from individual oocytes placed in a small Plexiglas net chamber (5 ml). Electrophysiological experiments were performed using microelectrodes filled with 3 M KCl (resistance of 0.2-0.7 MΩ) and an Oocyte Clamp amplifier (OC-725C; Warner Instrument, Hamden, Conn.). For physiological recordings of NMDA receptor activity, oocytes were first perfused with Mg^2+-free ND96 (mM: 96 NaOH, 2 KOH, 0.3 CaCl2, 5 HEPES pH 7.6 with methanesulfonic acid). Then, the oocytes were clamped at −60 mV holding potential, followed by recoding NMDA currents (induced by administering […]) (Zheng et al., J Neurosci. 17, 8676-8686, 1997; Chang and Kuo, J Neurosci. 28, 1546-1556, 2008).

[3] = target: T1, LPA3 receptor (Homo sapiens, UniProt Q9UBY5); assay: Intracellular cAMP level in LPA3-expressing B103 cells; type: cell-based
T1 construct: host or cells: B103 rat neuroblastoma cells
T1 sequence (Q9UBY5 1-353): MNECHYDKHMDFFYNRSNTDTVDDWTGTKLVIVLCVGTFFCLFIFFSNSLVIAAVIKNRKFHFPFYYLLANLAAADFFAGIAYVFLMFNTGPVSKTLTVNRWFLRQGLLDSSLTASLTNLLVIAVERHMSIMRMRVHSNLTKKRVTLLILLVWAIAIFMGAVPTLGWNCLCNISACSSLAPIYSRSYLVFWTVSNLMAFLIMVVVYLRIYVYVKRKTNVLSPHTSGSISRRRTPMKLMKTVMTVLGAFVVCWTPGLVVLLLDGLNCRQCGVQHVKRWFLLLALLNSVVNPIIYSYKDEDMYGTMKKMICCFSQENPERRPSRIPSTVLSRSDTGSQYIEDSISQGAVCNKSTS
Source text: After treatment with gintonin, B103 cells expressing LPA3 or LPA6 receptor were examined for change in intracellular cAMP level.

B1: gintonin: ginseng-derived glycolipoprotein; structural protein of ginseng major latex-like protein (MLP151) and ribonuclease-like storage proteins; crude gintonin used in tests (protein)
chain 1: MGLTGKLICQTGIKSDGDVFHELFGTRPHHVPNITPANIQGCDLHEGEFGKVGSVVIWNYSIDGNAMIAKEEIVAIDEEDKSVTFKVVEGHLFEEFKSIVFSVHVDTKGEDNLVTWSIDYEKLNESVKDPTSYLDFLLSVTRDIEAHHLPK
chain 2: RSDYPWAMFALRLQWPAGFCEVNNACDTKSLLNTFTIHGLYPYNAKGTPALYCDGTAFDVNSVSDFLAEMHLAWPSHETNTEDIQFWEHEWKKHGRCSEALLKQTDYFRTALAFRKAFDIVGLLNQEGIYPNNDLYRPKMIKEAIKKHLNAVPEIDFTKNENSEYVLTDINVCVNQQATRFVDCPTDDATDDYRLKFVRLPSKMKFADPRTNSII
- swimming time in the quadrant where the platform had been located ([1]; gintonin 25 mg/kg p.o. + scopolamine): 21.33 ± 3.13 s
- swimming time in the quadrant where the platform had been located ([1]; gintonin 50 mg/kg p.o. + scopolamine): 24.53 ± 3.91 s
- swimming time in the quadrant where the platform had been located ([1]; gintonin 100 mg/kg p.o. + scopolamine): 25.17 ± 4.43 s
- latent time to reach hidden platform ([1]; gintonin 25, 50, 100 mg/kg p.o. + scopolamine, day 1 to day 4): reduce the latent time extended by scopolamine significantly and in a dose-dependent manner
- NMDA receptor activity when treated with gintonin [2]: NMDA receptor activity at a low level
- change in intracellular cAMP level [3]: no influences on intracellular cAMP level
